Laboratory results from the supplement of paper PMC11136658.

Test system: peptide library, one residue held at a place counted from the Y acceptor
Experiment: relative phosphorylation of the sub-library (ratio to the mean residue at this position); higher = residue favoured
In short: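 Peptide library mixtures, biotinylated and centred on Tyr, each fixed one residue at one position from −5 to +5. Purified recombinant kinases were incubated with them for 90 min in 384-well plates alongside 50 μM ATP and γ-32P-ATP, and the captured, rinsed peptides on streptavidin membranes were measured by phosphorimaging and ImageQuant. Normalization divided each position's intensities by the sum of its 18 randomized residues (16 for the Ser/Thr-free library) and multiplied by that number, so that values give phosphorylation relative to the mean randomized residue.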

Chain of NTRK2, construct: aa455-end, human (Q16620 455-822, looked up): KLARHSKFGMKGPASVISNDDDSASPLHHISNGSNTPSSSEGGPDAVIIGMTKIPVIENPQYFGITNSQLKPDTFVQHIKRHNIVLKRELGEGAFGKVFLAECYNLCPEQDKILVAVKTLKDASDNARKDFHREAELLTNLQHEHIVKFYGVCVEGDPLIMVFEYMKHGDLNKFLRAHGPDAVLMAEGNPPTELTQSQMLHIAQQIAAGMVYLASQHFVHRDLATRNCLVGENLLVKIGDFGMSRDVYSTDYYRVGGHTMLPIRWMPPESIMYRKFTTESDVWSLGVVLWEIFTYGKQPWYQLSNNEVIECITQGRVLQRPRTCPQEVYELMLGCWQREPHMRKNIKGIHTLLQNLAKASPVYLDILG
Chain of NTRK1, construct: aa440-end, human (P04629 440-796, looked up): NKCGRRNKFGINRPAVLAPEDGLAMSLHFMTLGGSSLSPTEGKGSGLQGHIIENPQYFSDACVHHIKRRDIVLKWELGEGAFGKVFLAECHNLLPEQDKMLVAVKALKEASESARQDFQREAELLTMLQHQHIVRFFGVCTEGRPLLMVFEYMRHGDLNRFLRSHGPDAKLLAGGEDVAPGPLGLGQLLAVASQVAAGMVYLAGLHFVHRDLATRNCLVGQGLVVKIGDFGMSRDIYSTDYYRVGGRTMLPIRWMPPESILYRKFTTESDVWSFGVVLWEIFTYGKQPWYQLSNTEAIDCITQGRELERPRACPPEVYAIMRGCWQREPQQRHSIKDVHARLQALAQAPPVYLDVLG
Chain of NTRK3, construct: aa510-end, human (Q16288 510-839, looked up): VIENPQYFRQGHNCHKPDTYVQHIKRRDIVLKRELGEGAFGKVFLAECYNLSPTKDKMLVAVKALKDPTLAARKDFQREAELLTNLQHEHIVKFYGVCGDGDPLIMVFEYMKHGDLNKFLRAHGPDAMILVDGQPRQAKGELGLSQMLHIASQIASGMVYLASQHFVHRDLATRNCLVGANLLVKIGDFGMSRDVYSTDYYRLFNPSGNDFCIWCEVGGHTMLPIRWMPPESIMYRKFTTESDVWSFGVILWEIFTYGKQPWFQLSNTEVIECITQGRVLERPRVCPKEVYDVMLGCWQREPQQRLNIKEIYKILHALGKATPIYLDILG

NTRK1, construct: aa440-end, human (from UniProt P04629)
relative phosphorylation
Conditions	at +1	at +2	at +3	at +4	at +5	at -1	at -2	at -3	at -4	at -5
A fixed	1.34	0.684	0.751	0.76	0.909	0.676	0.944	0.792	1.02	0.882
D fixed	0.529	0.79	0.541	1.4	1.19	2.24	1.22	1.3	1.08	1.17
E fixed	0.936	1.28	0.45	1.52	1.12	1.07	1.34	1.5	1.32	1.03
F fixed	1.66	1.26	1.82	0.952	1.24	0.966	0.812	1.12	1.33	1.04
G fixed	0.711	0.438	0.891	1.25	1.07	0.578	1.05	0.955	1.05	1.08
H fixed	0.979	0.731	0.706	1.09	0.991	1.42	0.947	1.15	0.963	1.04
I fixed	1.66	1.28	2.02	0.897	0.748	1.32	0.854	0.777	0.837	0.946
K fixed	0.236	0.577	0.271	0.658	0.783	0.273	0.811	0.691	0.722	0.782
L fixed	1.2	1.2	1.92	0.734	0.983	1.17	1.01	0.794	0.939	0.93
M fixed	1.79	1.4	1.64	1.04	1.03	0.884	1.02	0.979	0.884	0.997
N fixed	0.441	0.952	0.475	0.899	1	2.12	1.25	1.39	0.93	1.23
P fixed	0.267	0.688	0.885	1.15	1.42	0.942	0.936	0.875	1.12	0.996
Q fixed	0.984	0.922	0.544	1.01	0.944	0.869	1.18	0.872	1.1	1.04
R fixed	0.273	0.983	0.419	0.803	0.883	0.349	0.871	0.854	0.79	1.02
S fixed	0.736	0.743	0.725	0.829	0.788	0.686	1.11	1.01	0.803	0.89
T fixed	0.916	0.955	0.868	0.85	0.715	0.873	0.897	0.987	0.671	0.939
V fixed	1.84	1.06	1.38	0.784	0.743	0.951	0.756	0.696	0.791	0.785
W fixed	1.5	2.06	1.71	1.37	1.43	0.614	0.99	1.25	1.66	1.2
pThr fixed	1.54	0.962	0.449	1.08	0.958	0.981	0.838	0.952	0.96	1.03
pTyr fixed	2.47	2.33	0.884	1.74	1.01	4.13	1.32	1.48	1.44	1.23

NTRK2, construct: aa455-end, human (from UniProt Q16620)
relative phosphorylation
Conditions	at +1	at +2	at +3	at +4	at +5	at -1	at -2	at -3	at -4	at -5
A fixed	1.42	0.697	0.136	0.894	0.979	0.684	0.962	0.876	0.971	0.87
D fixed	0.407	0.696	0.42	0.788	1.01	2.06	1.2	1.25	1.11	1.21
E fixed	0.546	0.786	0.308	0.894	0.831	0.84	1.28	1.36	1.33	1.1
F fixed	1.81	1.35	1.88	1.09	1.16	1.12	0.959	1.15	1.32	1.06
G fixed	0.747	0.491	0.569	1.18	1.05	0.45	1.02	0.864	0.996	0.954
H fixed	1.23	0.808	0.871	1.11	1.01	1.36	1.13	1.19	1.05	1.09
I fixed	1.58	1.27	2.41	0.847	0.742	1.31	0.745	0.661	0.825	0.894
K fixed	0.257	0.893	0.387	0.97	0.979	0.259	0.841	0.732	0.752	1.05
L fixed	1.05	1.1	2.12	0.898	0.989	1.38	1.03	0.878	0.921	0.923
M fixed	1.61	1.17	1.63	1.02	0.922	0.958	0.809	0.982	0.82	0.979
N fixed	0.37	0.919	0.467	0.774	0.928	2.13	1.22	1.26	0.921	1.13
P fixed	0.261	0.723	0.785	1.06	1.23	0.772	0.886	0.789	1.1	0.884
Q fixed	0.811	0.927	0.546	0.993	0.912	0.907	1.08	0.964	1.12	1.09
R fixed	0.266	1.16	0.65	0.997	1.03	0.258	0.877	0.785	0.84	1.06
S fixed	0.824	0.914	0.728	0.965	1.06	0.713	1.15	1.11	0.774	0.872
T fixed	0.776	0.897	0.702	0.838	0.914	0.805	0.888	0.93	0.635	0.776
V fixed	2.18	1.24	1.69	0.911	0.83	1.17	0.802	0.769	0.81	0.806
W fixed	1.85	1.95	1.72	1.76	1.42	0.822	1.11	1.46	1.71	1.25
pThr fixed	1.17	0.567	0.302	0.689	0.807	0.824	0.828	0.83	0.932	0.913
pTyr fixed	1.77	1.3	0.567	1.03	0.776	3.47	1.13	1.22	1.26	0.986

NTRK3, construct: aa510-end, human (from UniProt Q16288)
relative phosphorylation
Conditions	at +1	at +2	at +3	at +4	at +5	at -1	at -2	at -3	at -4	at -5
A fixed	1.69	0.892	0.734	0.952	1.02	0.783	1.09	0.974	1.11	1.07
D fixed	0.49	0.785	0.467	0.945	0.698	2.14	1.23	1.2	1.15	1.18
E fixed	0.8	1.08	0.378	1.29	0.752	1.3	1.51	1.47	1.61	1.17
F fixed	1.63	1.19	1.77	1.06	1.2	0.893	0.809	1.08	1.33	0.973
G fixed	0.753	0.459	0.63	1.37	1.12	0.495	1.19	1.08	1.22	1.35
H fixed	1.43	0.887	0.884	1.15	1.21	1.47	1.1	1.26	0.913	0.977
I fixed	1.77	1.04	2.41	0.792	0.939	1.38	0.831	0.755	0.902	0.965
K fixed	0.14	0.714	0.269	0.674	0.867	0.149	0.635	0.559	0.657	0.717
L fixed	0.821	1.09	2.05	0.72	1	1.24	0.776	0.724	0.961	0.986
M fixed	1.53	1.08	1.55	1.11	0.978	0.745	0.654	0.775	0.753	1.02
N fixed	0.322	1.11	0.403	0.855	0.687	2.5	1.17	1.41	0.809	1.22
P fixed	0.269	0.874	0.906	1.63	1.6	1.11	1.12	0.994	1.14	1.18
Q fixed	0.686	1.02	0.485	0.908	0.702	0.756	1.11	0.791	1.01	0.943
R fixed	0.173	1.05	0.375	0.821	0.975	0.196	0.731	0.682	0.641	0.87
S fixed	0.83	1.02	0.77	0.869	0.961	0.701	1.2	1.14	0.748	0.814
T fixed	0.871	0.983	0.741	0.862	0.919	0.784	1	1.04	0.684	0.88
V fixed	1.95	0.976	1.64	0.786	0.807	0.872	0.87	0.738	0.823	0.734
W fixed	1.85	1.76	1.54	1.21	1.55	0.48	0.989	1.32	1.53	0.951
pThr fixed	1.61	0.745	0.374	0.914	0.625	0.999	1	0.982	0.995	0.973
pTyr fixed	2.92	1.81	0.837	1.17	0.96	7.29	1.63	1.86	1.64	1.2
